Experimental data from patent US9018162B2, “Methods for rapidly treating severe hypoglycemia” (Xeris Pharmaceuticals, Inc., priority 2013, dated 2015).

Experiments:
[1] = Effect of pH on insulin solubility in DMSO (visual, A630); format: physicochemical; settings: pH memory of 7, some lower-concentration solutions e.g. 10 mg/mL
Description: These solutions were lyophilized to dryness ([…]) using a conservative cycle and reconstituted to various nominal concentrations in DMSO. Solubility was measured by visual inspection for clarity and turbidity via A630.

[2] = Freezing point depression of DMSO solutions by DSC; format: physicochemical; settings: DSC scan
Description: Using PerkinElmer Instruments PYRIS Diamond Differential Scanning calorimetry (“DSC”), samples were cooled to −40° C. and heated to 40° C. at 8° C. per minute for screening purposes.

## insulin
[1]
  period to slowly dissolve to a clear solution: about 24 hours

## C[S+](C)[O-] [neat DMSO, dimethylsulfoxide]
[2]
  temperature of crystallization (Tc): ~18 °C
